Source: patent US20250297004A1, “NECTIN-4 BINDING AGENTS” (INNATE PHARMA, priority 2022, published 2025)
“Also recorded” adds a separate entry of the source.

T1: wild-type human Nectin-4 protein (Nectin4-His-BirA) (Homo sapiens, UniProt Q96NY8)
T1 construct: human Nectin4-His-BirA protein diluted to 5 μg/mL in Kinetic buffer 10× were captured onto the biosensors; BirA (biotinylation acceptor tag) (C)
T1 sequence (Q96NY8 with tags, fused parts or gaps): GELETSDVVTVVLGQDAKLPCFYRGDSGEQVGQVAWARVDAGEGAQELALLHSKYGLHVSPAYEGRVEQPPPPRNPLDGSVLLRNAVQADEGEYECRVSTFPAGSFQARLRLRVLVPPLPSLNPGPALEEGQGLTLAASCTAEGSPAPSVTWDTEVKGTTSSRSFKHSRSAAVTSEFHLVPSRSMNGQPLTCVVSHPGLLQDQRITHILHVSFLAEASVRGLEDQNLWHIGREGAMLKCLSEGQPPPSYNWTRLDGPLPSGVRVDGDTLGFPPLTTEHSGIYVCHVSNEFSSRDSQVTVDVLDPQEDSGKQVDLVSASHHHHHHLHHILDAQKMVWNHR

T2: human Nectin-4 Mutant 1 (S58P/G59D/Q61A/N106D/P107A) (Homo sapiens, UniProt Q96NY8, G59D/N106D/P107A/Q61A/S58P)
T2 construct: expressed in transfected cells; host or cells: HEK293T
T2 sequence (Q96NY8 32-510 S58P/G59D/Q61A/N106D/P107A): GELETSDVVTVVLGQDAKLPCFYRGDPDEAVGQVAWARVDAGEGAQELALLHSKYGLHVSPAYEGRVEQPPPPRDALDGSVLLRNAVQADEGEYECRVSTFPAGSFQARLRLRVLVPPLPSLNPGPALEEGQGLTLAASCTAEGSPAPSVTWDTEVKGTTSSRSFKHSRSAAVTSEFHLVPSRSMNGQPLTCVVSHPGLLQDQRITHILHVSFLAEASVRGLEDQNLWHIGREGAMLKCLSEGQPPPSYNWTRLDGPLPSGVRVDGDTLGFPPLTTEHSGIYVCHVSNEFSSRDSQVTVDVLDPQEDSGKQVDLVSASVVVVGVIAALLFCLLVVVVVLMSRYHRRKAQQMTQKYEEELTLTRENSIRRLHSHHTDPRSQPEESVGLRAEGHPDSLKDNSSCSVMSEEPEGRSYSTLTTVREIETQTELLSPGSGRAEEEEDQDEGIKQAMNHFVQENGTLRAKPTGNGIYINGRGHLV

T3: human Nectin-4 Mutant 6 (H238A/I239T/H241Q) (Homo sapiens, UniProt Q96NY8, H238A/H241Q/I239T)
T3 construct: expressed in transfected cells; host or cells: HEK293T
T3 sequence (Q96NY8 32-510 H238A/I239T/H241Q): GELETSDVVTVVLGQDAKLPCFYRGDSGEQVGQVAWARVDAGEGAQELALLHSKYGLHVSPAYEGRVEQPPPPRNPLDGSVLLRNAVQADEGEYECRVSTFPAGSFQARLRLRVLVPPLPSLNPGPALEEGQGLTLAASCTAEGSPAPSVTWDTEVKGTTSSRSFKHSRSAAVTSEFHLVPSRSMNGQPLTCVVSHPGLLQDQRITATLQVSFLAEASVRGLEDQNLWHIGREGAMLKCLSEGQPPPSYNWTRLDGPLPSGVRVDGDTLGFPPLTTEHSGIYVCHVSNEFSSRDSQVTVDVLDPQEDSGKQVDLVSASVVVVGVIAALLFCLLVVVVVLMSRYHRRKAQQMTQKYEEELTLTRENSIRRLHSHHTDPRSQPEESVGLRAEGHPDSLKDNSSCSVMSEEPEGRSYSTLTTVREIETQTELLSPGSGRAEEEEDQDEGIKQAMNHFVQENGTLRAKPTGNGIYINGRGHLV


Legend:
[1] = target: T1, wild-type human Nectin-4 protein (Nectin4-His-BirA); experiment: Epitope mapping by competition for binding to Nectin-4 (SPR/OCTET); conditions: listed as antibody = 1st mAb injected; 10 μg/mL each
Method: Briefly, human Nectin4-His-BirA protein diluted to 5 μg/mL in Kinetic buffer 10× were captured onto the biosensors. The first antibody was injected diluted to 10 μg/mL in Kinetic buffer 10×, followed by a second injection of the first antibody diluted to 10 μg/mL in Kinetic buffer 10× in order to saturate the signal. The second antibody was injected diluted to 10 μg/mL in Kinetic buffer 10×.
Squares with “O” indicate substantial or direct competition between the 1st and 2nd antibody (1st antibody prevents/causes loss of binding of 2nd antibody), squares with “X” indicate potential partial competition (1st antibody causes a potential reduction but not loss of binding of 2nd antibody), squares with “N/A” indicate no competition.

[2] = target: T2, human Nectin-4 Mutant 1 (S58P/G59D/Q61A/N106D/P107A); experiment: Epitope mapping using Nectin-4 point mutants; format: binding
Source text: (§1) Combined with the published structures of the Nectin-4 domains, Nectin-4 mutations at surface exposed amino acids residues were designed. Nectin-4 domain structure was modelled based on Protein Data Bank reference: 4FRW (domains V et C1). Human Nectin-4 used was NCBI Reference Sequence: NP_112178.2, mouse Nectin-4 used was NCBI Reference Sequence: AAL79833.1, cynomolgus Nectin-4 used was NCBI Reference Sequence: XP_005541277.1, rat Nectin-4 used was NCBI Reference Sequence: NP_001102546.1. The cells expressing the Nectin-4 mutants are then be used for testing anti-Nectin-4 antibodies for loss of binding to different Nectin-4 mutants to identify antibodies that bind to the same site on Nectin-4. […] FIGS. 8A and 8B show different view of a molecular model of the human Nectin-4 protein, indicating the position of substituted residues in mutants 1, 2, 3, 4, 5, 6, 7, 8 and 9.
(§2) Nectin-4 mutants were generated by PCR. The sequences amplified were run on agarose gel and purified using the Macherey Nagel PCR Clean-Up Gel Extraction kit. The purified PCR products generated for each mutant were then ligated into an expression vector, with the ClonTech InFusion system. The vectors containing the mutated sequences were prepared as Miniprep and sequenced. After sequencing, the vectors containing the mutated sequences were prepared as Midiprep using the Promega PureYield™ Plasmid Midiprep System. HEK293T cells were grown in DMEM medium (Invitrogen), transfected with vectors using Invitrogen's Lipofectamine 2000 and incubated at 37° C. in a CO2 incubator for 48 hours prior to testing for transgene expression. The targeted amino acid mutations are shown in Table 13 below, listing the residue present in wild-type Nectin-4/position of residue/residue present in mutant Nectin-4, with position reference being to the Nectin-4 protein with leader peptide shown in SEQ ID NO: 1.
(§3) (+) means that antibodies-Nectin-4 association occurs.

[3] = target: T3, human Nectin-4 Mutant 6 (H238A/I239T/H241Q); experiment: Epitope mapping using Nectin-4 point mutants; format: binding
Source text: as §1, §2, §3

[4] = system: SUM190 cells subcutaneously engrafted in CB17-SCID mice; experiment: In vivo efficacy of ggfg-Dxd ADCs, Nectin-4 low/SUM190 mouse model of human breast cancer; conditions: single i.v. injection 3 mg/kg, each antibody conjugated to ggfg-Dxd, DAR=8, FIG. 4
Method: SUM190 cells were subcutaneously engrafted in CB17-SCID immunodeficient mice at a dose of 0.5 million cells in 100 μl of Matrigel with growth factor diluted at ½ in PBS. When tumors reached a volume between 195 and 250 mm3, mice were randomized into groups of 9 mice for intravenous treatment with a single injection of 3 mg/kg of camptothecin ADCs. Tumor growths were followed twice a week. Kaplan Meier survival curves were established by using GraphPad Prism V7 software according to the following criteria: When the tumor volume reached 1500 mm3, mice were euthanized and considered dead on the day of sacrifice (D).

Row | Molecule | competition, 2nd mab injected: 14A5 [1] | competition, 2nd mab injected: MABT64 [1] | competition, 2nd mab injected: N41 [1] | association with Mutant 1 [2] | association with Mutant 6 [3] | control of tumor growth [4] | competition, 2nd mab injected: 5E7 [1] | control of tumor growth ([4]; 3 mg/kg)
1 | N41 (antibody, V domains shown) VH: QVQLKQSGPGLVQPSQSLSITCTVSGFSLTNYGVHWVRQSPGKGLEWLGVIWSGGSTDYNAAFISRLSISKDTSKSQVFFKMNSLQADDTAIYYCARELIHAMDNWGQGTSVTVSS VL: DIQMTQSPASLSVSVGETVTITCRASENIYSNLAWYQQKQGNSPQLLVFAATNLADGVPSRFSGSGSGTQYSLKINSLQSEDFGTYYCQHFWGTPTFGGGTKLEIK | ◯ | ◯ | ◯ | − | + | no longer showed the ability to control tumor growth |  | 
2 | 5E7 (antibody, V domains shown) VH: QVQLQQPGAELVKPGASVKLSCKASGYIFTSYWMHWVKQRPGQGLEWIGEIDPSDSYTNYNQKFKGKATLTLDKSSSTTYMQLSSLTSEDSAVYYCVRGYGNYGDYWGQGTTLTVSSASTKGP VL: DVVMTQAAFSNPVTLGTSASISCRSSKSLLHSNGITYLYWYLQKPGQSPQLLIYQMSNLASGVPDRFSSSGSGTDFTLRISRVEAEDVGVYYCAQNLELPWTFGGGTKLEIKRTVAAP |  |  |  | + | + |  | ◯ | strong ability to prevent tumor growth; also recorded: able to effectively control tumor growth
